Tests used:
[1] = biological target: the molecule itself; assay: SEC; holo-HypCS-D after Strep-Tactin affinity chromatography, Superdex 200 Increase 10/300 GL; oligomers separated from the HypCD complex
[2] = biological target: T1, HypD from Escherichia coli (Escherichia coli, UniProt P24192 1-373); assay: pull-down; Strep-Tactin affinity chromatography by the Strep-tag II on HypC from soluble extracts of aerobically cultivated E. coli co-producing HypC_(Strep) and HypD (apo: pTHypDC_(Strep); holo: pTHypDEFC_(Strep)); 4 °C; SDS-PAGE of the isolated complexes; details: partners not purified
T1 construct: HypD, [4Fe-4S] cluster-containing hydrogenase maturation factor, Escherichia coli; Carries a [4Fe-4S] cluster; No tag is named for HypD in the complexes; also called EcHypD; HypD part of HypCS-D and HypCH-D
T1 sequence (looked up): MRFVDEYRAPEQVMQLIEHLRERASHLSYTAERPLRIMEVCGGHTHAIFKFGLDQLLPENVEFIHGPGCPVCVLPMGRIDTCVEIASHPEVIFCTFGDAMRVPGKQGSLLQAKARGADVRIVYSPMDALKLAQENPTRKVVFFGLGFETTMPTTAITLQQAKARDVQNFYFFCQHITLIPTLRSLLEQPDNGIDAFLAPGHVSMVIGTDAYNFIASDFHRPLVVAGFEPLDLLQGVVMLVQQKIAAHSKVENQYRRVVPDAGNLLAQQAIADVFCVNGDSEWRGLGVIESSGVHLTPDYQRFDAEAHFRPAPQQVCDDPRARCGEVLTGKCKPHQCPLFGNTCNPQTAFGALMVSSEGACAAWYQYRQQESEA

binding result [2]: binds
B1: HypC_(Strep) (HypC from Escherichia coli with Strep-tag II C-terminally fused) (natural protein, UniProt P0AAM3 1-90, looked up)
chain: MCIGVPGQIRTIDGNQAKVDVCGIQRDVDLTLVGSCDENGQPRVGQWVLVHVGFAMSVINEAEARDTLDALQNMFDVEPDVGALLYGEEK
notes: HypC, hydrogenase maturation factor, Escherichia coli; residue numbers count with Met1 as 1; also called EcHypC; HypC part of apo-HypCS-D and holo-HypCS-D; source: holo form additionally by size-exclusion chromatography; not shown: Strep-tag II, C-terminal, kept
binding result [1]: binds

— paper PMC11565642, “ATP-Triggered Fe(CN)2CO Synthon Transfer from the Maturase HypCD to the Active Site of Apo-[NiFe]-Hydrogenase” (Journal of the American Chemical Society, 2024)
